Measured values published in patent US20050182242A1, “Global analysis of protein activities using proteome chips” (priority 2001, published 2005).

B1: PKR1: yeast GST-HisX6 fusion protein on proteome chip (protein, UniProt Q03880 1-122, looked up)
V-type ATPase assembly factor …: MANFFVRLWESVFEPGTSPQLIIATHVSFVALLLTLIWLIYATNGNIHFYALFCISLLLWITVIWFINELSHVKLKDNDELDKDANKKDDSAIKEDSEDKQESGKSTSTARRTQAQSRSRKA
modifications: GST-His6 tag
notes: yeast GST-HisX6 fusion protein on proteome chip
B2: SUN4: yeast GST-HisX6 fusion protein on proteome chip (protein, UniProt P53616 25-420, looked up)
Probable secreted …: YAADIDTGCTTTAHGSHQHKRAVAVTYVYETVTVDKNGQTVTPTSTEASSTVASTTTLISESSVTKSSSKVASSSESTEQIATTSSSAQTTLTSSETSTSESSVPISTSGSASTSSAASSATGSIYGDLADFSGPYEKFEDGTIPCGQFPSGQGVIPISWLDEGGWSGVENTDTSTGGSCKEGSYCSYACQPGMSKTQWPSDQPSDGRSIGGLLCKDGYLYRSNTDTDYLCEWGVDAAYVVSELSNDVAICRTDYPGTENMVIPTYVQAGDSLPLTVVDQDTYYTWQGLKTSAQYYVNNAGISVEDACVWGSSSSGVGNWAPLNFGAGSSDGVAYLSLIPNPNNGNALNFNVKIVAADDSSTVNGECIYENGSFSGGSDGCTVSVTAGKAKFVLYN
modifications: GST-His6 tag
notes: as for B1
B3: DPS1: yeast GST-HisX6 fusion protein on proteome chip (protein, UniProt P04802 2-557, looked up)
Aspartate--tRNA ligase, …: SQDENIVKAVEESAEPAQVILGEDGKPLSKKALKKLQKEQEKQRKKEERALQLEAEREAREKKAAAEDTAKDNYGKLPLIQSRDSDRTGQKRVKFVDLDEAKDSDKEVLFRARVHNTRQQGATLAFLTLRQQASLIQGLVKANKEGTISKNMVKWAGSLNLESIVLVRGIVKKVDEPIKSATVQNLEIHITKIYTISETPEALPILLEDASRSEAEAEAAGLPVVNLDTRLDYRVIDLRTVTNQAIFRIQAGVCELFREYLATKKFTEVHTPKLLGAPSEGGSSVFEVTYFKGKAYLAQSPQFNKQQLIVADFERVYEIGPVFRAENSNTHRHMTEFTGLDMEMAFEEHYHEVLDTLSELFVFIFSELPKRFAHEIELVRKQYPVEEFKLPKDGKMVRLTYKEGIEMLRAAGKEIGDFEDLSTENEKFLGKLVRDKYDTDFYILDKFPLEIRPFYTMPDPANPKYSNSYDFFMRGEEILSGAQRIHDHALLQERMKAHGLSPEDPGLKDYCDGFSYGCPPHAGGGIGLERVVMFYLDLKNIRRASLFPRDPKRLRP
modifications: GST-His6 fusion tag
notes: as for B1
B4: WRS1: yeast GST-HisX6 fusion protein on proteome chip (protein, UniProt Q12109 1-432, looked up)
Tryptophan--tRNA ligase, …: MSNDETVEKVTQQVSELKSTDVKEQVVTPWDVEGGVDEQGRAQNIDYDKLIKQFGTKPVNEETLKRFKQVTGREPHHFLRKGLFFSERDFTKILDLYEQGKPFFLYTGRGPSSDSMHLGHMIPFVFTKWLQEVFDVPLVIELTDDEKFLFKHKLTINDVKNFARENAKDIIAVGFDPKNTFIFSDLQYMGGAFYETVVRVSRQITGSTAKAVFGFNDSDCIGKFHFASIQIATAFPSSFPNVLGLPDKTPCLIPCAIDQDPYFRVCRDVADKLKYSKPALLHSRFFPALQGSTTKMSASDDTTAIFMTDTPKQIQKKINKYAFSGGQVSADLHRELGGNPDVDVAYQYLSFFKDDDVFLKECYDKYKSGELLSGEMKKLCIETLQEFVKAFQERRAQVDEETLDKFMVPHKLVWGEKERLVAPKPKTKQEKK
modifications: GST-HisX6 tag
notes: as for B1

Legend:
Details in all cases: liposome binding signal on yeast proteome chip, Cy3-streptavidin detection
[1] = tested on: phosphatidylcholine (PC) liposomes; assay: Yeast proteome chip probed with PC liposomes
From the text: (§1) To identify PI-binding proteins in yeast, liposomes were used as probes because the liposome provides the most relevant physiological condition to assay the interactors. Six types of liposomes were used. Each contains phosphatidylcholine (“PC”) with 1% (w/w) N-(biotinoyl)-1,2-dihexadecanoyl-sn-glycero-3-phosphoethanolamine, triethylammonium salt (biotin DHPE). The biotinylated lipid serves as a label that can be detected by Cy3-streptavidin (21). In addition to PC, the five other liposomes contain either 5% (w/w) PI(3)P, PI(4)P, PI(3,4)P2, PI(4,5)P2, or PI(3,4,5)P3 (FIG. 3A).
(§2) The protein-liposome interaction was assayed as follows. Appropriate amounts of each lipid in chloroform were mixed and dried under nitrogen. The lipid mixture was resuspended in TBS buffer by vortexing. The liposomes were created by sonication. Blocked proteome chips were washed three to five times in PBS buffer, and the extra liquid on the glass surface was removed by tapping the slides vertically on a KIMWIPE™. 200 μl of liposome solution was added to the proteome chip and immediately covered by a hydrophobic plastic cover slip (GRACE BIO-LAB™, USA). After trapped air bubbles were removed, the chip was incubated in a humidity chamber at RT for one hour. To remove the cover slip, the chip was immersed into large volume of PBS buffer (50 ml), so that the slip would float away. The chip was then moved to a second PBS bath (>50 ml) and washed 3×5 min with shaking at RT. After removing extra liquid on the surface of the chip, about 100 μl of Cy3 or Cy5 conjugated streptavidin (PIERCE™, USA; 1:2000 to 1:4000 dilution) was added to the surface and covered by a hydrophobic plastic cover slip (GRACE BIO-LABS™, USA). The chip was incubated for greater than 30 min in the dark at RT. The chip was then washed as described above. To completely remove the liquid on the chip, the chip was spun to dryness at 1500-2000 rpm for 5-10 min at RT.
(§3) • 1. S. Fields, Y. Kohara, D. J. Lockhart, Proc. Natl. Acad. Sci. 96, 8825 (1999); A. Goffeau et al., Science 274, 563 (1996). • 2 P. Ross-Macdonald et al., Nature 402, 413 (1999); J. L., DeRisi, V. R. Iyer, P. O. Brown, Science 278, 680 (1997); E. A. Winzeler et al., Science 285, 901 (1999). P. Uetz et al., Nature 403, 623 (2000); T. Ito et al., Proc. Natl. Acad. Sci. USA. 97, 1143 (2000) • 3 H. Zhu, M. Snyder, Curr. Opin. Chem. Biol. 5, 40 (2001). • 4 M. R. Martzen et al., Science 286, 1153 (1999). • 5 H. Zhu et al., Nat. Genet. 26, 283 (2000). • 6 G. MacBeath, S. L. Schreiber, Science 289, 1760 (2000). • 7 A. Caveman, J. Cell Sci. 113, 3543 (2000). • 8 P. Arenkov et al., Anal. Biochem 278, 123 (2000). • 9 D. A. Mitchell, T. K. Marshall, R. J. Deschenes, Yeast 9, 715 (1993). The expression vector pEGH was created by inserting an RGS-HisX6 epitope tag between the GST gene and the polycloning site of pEG(KG). The yeast ORFs were cloned using the strategy described previously (5), except every step was done in a 96-well format. Plasmid DNAs confirmed by DNA sequencing were reintroduced into both yeast (Y258) and E. coli (DH5a). […] 0.1 mM calcium was present in buffers in all subsequent steps. The chip was washed three times with PBS at RT. Cy3-conjugated streptavidin (Jackson IR, USA) (1:5000 dilution) was added to the chip and incubated for 30 min at RT. After extensive washing, the chip was spun dry and scanned using a microarray scanner; the data was subsequently acquired with the GENEPIX™ array densitometry software (Axon, USA). • 12 S. S. Hook, A. R. Means, Annu. Rev. Pharmacol. Toxicol.41, 471 (2001). • 13 M. S. Cyert, R. Kunisawa, D. Kaim, J. Thorner, Proc. Natl. Acad. Sci. USA 88, 7376 (1991). • 14 D. A. Stirling, K. A. Welch, M. J. Stark, EMBO J. 13, 4329 (1994). • 15 F. Bohl, Kruse, EMBO J. 19, 5514 (2000); E. Bertrand et al., Mol. Cell 2, 437 (1998). • 16 D. C. Winter, E. Y. Choe, R. Li, Proc. Nat. Acad Sci. USA 96, 7288 (1999). • 17 C.

PI(3,4,5)P3 liposomes = assay: Yeast proteome chip probed with PI(3,4,5)P3 liposomes
From the text: as §1, §2, §3

PI(3,4)P2 liposomes = assay: Yeast proteome chip probed with PI(3,4)P2 liposomes
From the text: as §1, §2, §3

PI(4,5)P2 liposomes = assay: Yeast proteome chip probed with PI(4,5)P2 liposomes
From the text: as §1, §2, §3

PI(4)P liposomes = assay: Yeast proteome chip probed with PI(4)P liposomes
From the text: as §1, §2, §3

| Molecule | PC [1] | PI(3, 4, 5)P3 (PI(3,4,5)P3 liposomes) | PI(3, 4)P2 (PI(3,4)P2 liposomes) | PI(4, 5)P2 (PI(4,5)P2 liposomes) | PI(4)P (PI(4)P liposomes) |
| --- | --- | --- | --- | --- | --- |
| B1 | 61.63 | 15.75 | 37.52 | 87.75 | 61.40 |
| B2 | 69.55 | 33.19 | 20.88 | 66.41 | 60.75 |
| B3 | 62.22 | 13.05 | 25.12 | 41.81 | 99.29 |
| B4 | 62.51 | 51.08 | 63.10 | 21.56 | 4.57 |
